From patent US20250135018A1
One block for each molecule: values may come before it.

How the values were obtained:
Assay in all cases: cell-based or functional assay
NTB-A = NTB-A (UniProt Q96DU3)
CD48 = CD48 (UniProt P09326)
CD70 = molecular target: T1, CD70 (UniProt P32970)
T1 sequence (looked up): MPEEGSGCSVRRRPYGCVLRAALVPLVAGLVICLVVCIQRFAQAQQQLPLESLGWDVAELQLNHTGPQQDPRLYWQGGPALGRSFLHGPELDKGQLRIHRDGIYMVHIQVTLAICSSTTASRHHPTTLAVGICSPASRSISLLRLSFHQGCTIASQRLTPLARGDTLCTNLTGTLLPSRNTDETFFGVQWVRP

Sequence of NTB-A (Q96DU3 22-332 limits assumed): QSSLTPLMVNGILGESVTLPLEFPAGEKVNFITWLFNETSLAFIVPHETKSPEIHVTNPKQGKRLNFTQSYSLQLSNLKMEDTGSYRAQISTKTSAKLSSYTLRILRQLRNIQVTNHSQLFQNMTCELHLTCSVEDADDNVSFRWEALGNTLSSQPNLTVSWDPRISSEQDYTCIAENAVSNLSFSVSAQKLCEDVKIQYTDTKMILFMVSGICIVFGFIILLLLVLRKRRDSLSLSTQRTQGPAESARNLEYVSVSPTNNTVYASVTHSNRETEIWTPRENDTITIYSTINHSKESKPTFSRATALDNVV
Sequence of CD48 (P09326 27-220 limits assumed): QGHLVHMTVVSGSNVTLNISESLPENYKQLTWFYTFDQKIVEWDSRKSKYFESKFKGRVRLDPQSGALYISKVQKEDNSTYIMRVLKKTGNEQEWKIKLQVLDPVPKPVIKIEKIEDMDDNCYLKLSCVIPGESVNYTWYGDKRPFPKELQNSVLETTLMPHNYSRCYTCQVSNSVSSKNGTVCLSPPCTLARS

Molecule: Ag5-Ex_4-1: h20F3 anti-NTB-A antibody conjugated to MP-PEG4-Val-Lys-Gly-7-MAD-MDCPT, DAR=8
IC50 of cell growth (CellTiter-Glo, 96 h), EJM cells (NTB-A): 0.15 µg/mL | IC50 of cell growth (CellTiter-Glo, 96 h), KMM-1 cells (NTB-A): 0.177 µg/mL | IC50 of cell growth (CellTiter-Glo, 96 h), MM.1R cells (NTB-A): 0.005 µg/mL | IC50 of cell growth (CellTiter-Glo, 96 h), NCI-H929 cells (NTB-A): 0.08 µg/mL | IC50 of cell growth (CellTiter-Glo, 96 h), U-266 cells (NTB-A): 0.097 µg/mL | percent cells remaining at highest concentration tested, EJM cells (NTB-A): 31% | percent cells remaining at highest concentration tested, KMM-1 cells (NTB-A): 16% | percent cells remaining at highest concentration tested, MM.1R cells (NTB-A): 0% | percent cells remaining at highest concentration tested, NCI-H929 cells (NTB-A): 2% | percent cells remaining at highest concentration tested, U-266 cells (NTB-A): 28%

Molecule: Ag5-Ex_8-1a: h20F3 anti-NTB-A antibody conjugated to MC-GGFG-NHCH2-DXd(1), DAR=8
IC50 of cell growth (CellTiter-Glo, 96 h), EJM cells (NTB-A): 7.19 µg/mL | IC50 of cell growth (CellTiter-Glo, 96 h), KMM-1 cells (NTB-A): 5.29 µg/mL | IC50 of cell growth (CellTiter-Glo, 96 h), MM.1R cells (NTB-A): 0.177 µg/mL | IC50 of cell growth (CellTiter-Glo, 96 h), NCI-H929 cells (NTB-A): 2.93 µg/mL | IC50 of cell growth (CellTiter-Glo, 96 h), U-266 cells (NTB-A): > 10 µg/mL | percent cells remaining at highest concentration tested, KMM-1 cells (NTB-A): 45%

Molecule: Ag4-Ex_4-1: hMEM102 anti-CD48 antibody conjugated to MP-PEG4-Val-Lys-Gly-7-MAD-MDCPT, DAR=8
IC50 of cell growth (CellTiter-Glo, 96 h), EJM cells (CD48): 0.053 µg/mL | IC50 of cell growth (CellTiter-Glo, 96 h), KMM-1 cells (CD48): 0.018 µg/mL | IC50 of cell growth (CellTiter-Glo, 96 h), MM.1R cells (CD48): 0.004 µg/mL | IC50 of cell growth (CellTiter-Glo, 96 h), NCI-H929 cells (CD48): 0.006 µg/mL | IC50 of cell growth (CellTiter-Glo, 96 h), U-266 cells (CD48): 0.017 µg/mL | percent cells remaining at highest concentration tested, EJM cells (CD48): 27% | percent cells remaining at highest concentration tested, KMM-1 cells (CD48): 16% | percent cells remaining at highest concentration tested, MM.1R cells (CD48): 1% | percent cells remaining at highest concentration tested, NCI-H929 cells (CD48): 2% | percent cells remaining at highest concentration tested, U-266 cells (CD48): 38%

B1: Ag3-Ex_4-1: h1F6 anti-CD70 antibody conjugated to MP-PEG4-Val-Lys-Gly-7-MAD-MDCPT, DAR=8 (antibody, INN chains, looked up, V domains shown)
VH: QVQLVQSGAEVKKPGASVKVSCKASGYTFTNYGMNWVRQAPGQGLKWMGWINTYTGEPTYADAFKGRVTMTRDTSISTAYMELSRLRSDDTAVYYCARDYGDYGMDYWGQGTTVTVSS
VL: DIVMTQSPDSLAVSLGERATINCRASKSVSTSGYSFMHWYQQKPGQPPKLLIYLASNLESGVPDRFSGSGSGTDFTLTISSLQAEDVAVYYCQHSREVPWTFGQGTKVEIK
modifications: MP-PEG4-Val-Lys-Gly-MDCPT conjugate, DAR 8
IC50 of cell growth (CellTiter-Glo, 96 h), 786-O cells (CD70): 0.037 µg/mL | IC50 of cell growth (CellTiter-Glo, 96 h), Caki-1 cells (CD70): 0.036 µg/mL | IC50 of cell growth (CellTiter-Glo, 96 h), Raji cells (CD70): 1.13 µg/mL | IC50 of cell growth (CellTiter-Glo, 96 h), UM-RC-3 cells (CD70): 0.016 µg/mL | percent cells remaining at highest concentration tested, 786-O cells (CD70): 18% | percent cells remaining at highest concentration tested, Caki-1 cells (CD70): 24% | percent cells remaining at highest concentration tested, Raji cells (CD70): 45% | percent cells remaining at highest concentration tested, UM-RC-3 cells (CD70): 30%

Results, then the molecule that gave them:

IC50 of cell growth (CellTiter-Glo, 96 h), EJM cells (CD48): 2.79 µg/mL | IC50 of cell growth (CellTiter-Glo, 96 h), KMM-1 cells (CD48): 0.075 µg/mL | IC50 of cell growth (CellTiter-Glo, 96 h), MM.1R cells (CD48): 0.009 µg/mL | IC50 of cell growth (CellTiter-Glo, 96 h), NCI-H929 cells (CD48): 0.009 µg/mL | IC50 of cell growth (CellTiter-Glo, 96 h), U-266 cells (CD48): > 10 µg/mL | percent cells remaining at highest concentration tested, EJM cells (CD48): 0% | percent cells remaining at highest concentration tested, KMM-1 cells (CD48): 34% | percent cells remaining at highest concentration tested, MM.1R cells (CD48): 0% | percent cells remaining at highest concentration tested, NCI-H929 cells (CD48): 3%
Molecule: Ag4-Ex_8-1a: hMEM102 anti-CD48 antibody conjugated to MC-GGFG-NHCH2-DXd(1), DAR=8

IC50 of cell growth (CellTiter-Glo, 96 h), 786-O cells (CD70): > 10 µg/mL | IC50 of cell growth (CellTiter-Glo, 96 h), Caki-1 cells (CD70): > 10 µg/mL | IC50 of cell growth (CellTiter-Glo, 96 h), Raji cells (CD70): 5.56 µg/mL | IC50 of cell growth (CellTiter-Glo, 96 h), UM-RC-3 cells (CD70): 0.065 µg/mL | percent cells remaining at highest concentration tested, 786-O cells (CD70): 54% | percent cells remaining at highest concentration tested, Caki-1 cells (CD70): 68% | percent cells remaining at highest concentration tested, UM-RC-3 cells (CD70): 40%
B2: Ag3-Ex_8-1a: h1F6 anti-CD70 antibody conjugated to MC-GGFG-NHCH2-DXd(1), DAR=8 (antibody, INN chains, looked up, V domains shown)
VH: B1 VH
VL: B1 VL
modifications: MC-GGFG-DXd conjugate, DAR 8
